{
  "source": "patent US5849703A",
  "about": "“Pre-formed anticoagulant heparin/TFPI complexes” (G. D. Searle & Co., priority 1996, dated 1998)",
  "key": {"[1]": {"experiment": "Solubility of FL-TFPI and heparin/FL-TFPI complexes", "text": "(§6) The solubility of non-glycosylated recombinant E. coli-derived FL-TFPI [Diaz-Collier, et al., Thromb."}, "[2]": {"system": "TF-induced clotting in human plasma", "experiment": "Dilute prothrombin time (dPT) assay: TF-induced clotting of human plasma", "type": "biochemical", "settings": "1:4 dilution of Simplastin", "method": "dPT assay was carried out using 1:4 dilution of Simplastin®. Closed square and closed triangle on the abscissa indicate the clotting times of the plasma supplemented with control buffer and 2 μg/ml FL-TFPI, respectively.\ndPT assay was carried out using 1:40 dilution of Simplastin®. Closed square and closed triangle on the abscissa indicate the clotting times of the plasma supplemented with control buffer and 0.3 μg/ml FL-TFPI, respectively.\n(§1) Rabbit brain thromboplastin (TF;Simplastin®) was diluted to varying degrees ranging from 1:4 to 1:50 with a buffer containing 12.5 mM CaCl2, 75 mM NaCl, 0.5 mg/ml bovine serum albumin, and 0.02% NaN3, for determination of TF-induced clotting time in human plasma. Fifty (50) μl of human plasma were mixed with 50 μl of DB, heparin, TFPI, or preformed complexes of heparin/TFPI in DB in the well of a Fibrometer at 37° for 1 min. Two hundred (200) μl of appropriately diluted thromboplastin reagent were then added and the time to clotting was determined.\n(§2) The dPTs reported here are the average of 2 to 8 determinations, depending on the length of the clotting time. When the clotting time was short (<100 sec), the variations between determinations are small and 2-4 assay values were averaged for each data point. When the clotting time is long (>100 sec), the variations between determinations are larger and 5-8 assay values are averaged for each data point. […] The concentrations of heparin and TFPI are expressed as units or μg per ml of plasma, not as that in the final assay mixture.\nIn one-stage TF-induced plasma clotting assay, clotting time is dependent on the concentration of TF and the concentrations of anticoagulants present. […] In the absence of added anticoagulants, the addition of this concentration of TF caused the plasma to clot in 20 sec (closed square)."}, "[3]": {"system": "TF-induced clotting of TFPI-depleted plasma", "experiment": "dPT assay in TFPI-depleted plasma (1:50 dilution of Simplastin)", "type": "biochemical, human", "settings": "for prolongation of clotting time: increasing concentrations, alone, 1:50 dilution of Simplastin", "method": "FIG. 2B: Effects of CT-TFPI (.quadrature.), heparin (.circle-solid.), and sequential addition of CT-TFPI and heparin (.tangle-solidup.) on clotting time. dPTs were determined as described in METHODS using 1:50 dilution of Simplastin®.\nPooled plasma was prepared by mixing four (4) units of individual plasmas, and TFPI-depleted pooled plasma was obtained by passing the pooled plasma through a rabbit anti-human TFPI-Ig Sepharose® 4B column as described previously [(Wun, J. Biol. Chem. 265:16096-16101 (1990)].\nas §1, §2\nIn the present work, FL-TFPI and CT-TFPI were separated by Mono S chromatography as described before [Wun, et al., Thromb. Haemost. 68, 54-59 (1992)], and the effects of heparin, FL-TFPI, or CT-TFPI alone, and combinations of heparin/FL-TFPI, and heparin/CT-TFPI were compared. FIGS. 2A and B show the results."}, "[4]": {"system": "intrinsic and the common pathways", "experiment": "Activated partial thromboplastin time (APTT) assay", "type": "biochemical, human", "method": "(§3) Measurement of PT and APTT are as described in METHODS. PT and APTT ratios are calculated by dividing the clotting times in the presence of the indicated amounts of FL-TFPI or heparin by the clotting times in the absence of anticoagulants.\nNinety (90) μl of plasma were mixed with 10 μl of DB, FL-TFPI solution, or heparin solution in the Fibrometer well at 37° for 1 min. One hundred (100) μl of Dade's activated cephaloplastin reagent were added and the mixture was incubated for exactly 2 min. A calcium solution (100 μl of 25 mM CaCl2) was added and the time to clotting was recorded.\n(§4) PT is a global test that primarily measures the functionality of the extrinsic and the common pathways; while APTT is a procedure which evaluates that of the intrinsic and the common pathways. The individual effects of heparin and FL-TFPI on PT and APTT were examined to determine the primary sites of their actions."}, "[5]": {"system": "fibrin-dependent glomerulonephritis model", "settings": "clinical dose of heparin; cited from earlier work"}, "factor Xa": {"system": "factor Xa", "settings": "purified system; cited from earlier work"}, "[6]": {"system": "extrinsic and the common pathways", "experiment": "Prothrombin time (PT) assay", "type": "biochemical, human", "method": "as §3\nNinety (90) μl of plasma were mixed with 10 μl of DB (dilution buffer containing 10 mM Tris/HCl, pH 7.4, 150 mM NaCl, 1 mM Na2 SO4, 1 mg/ml bovine serum albumin, and 0.02% NaN3), FL-TFPI solution, or heparin solution in the Fibrometer well at 37° for 1 min. Two hundred (200) μl of Simplastin® were then added and the time to clotting was recorded.\nas §4"}, "[7]": {"experiment": "Pharmacokinetics following bolus injection in rabbits", "type": "in vivo, rabbit", "settings": "for tα: bolus FL-TFPI 1.5 mg/kg or heparin 1.9 mg/kg/FL-TFPI 1.5 mg/kg; for % AUCα / % AUCβ / Clearence / Vd / tβ: bolus", "method": "The pharmacokinetics study was carried out as described in METHODS. Rabbits were injected with a bolus of FL-TFPI (1.5 mg/kg) or heparin (1.9 mg/kg)/FL-TFPI (1.5 mg/kg) complex.\n(§5) Plasma levels of TFPI antigen were measured by PCFIA assay. Functional TFPI activity in the plasma was also measured by dPT assay using each rabbit's own control plasma supplemented with known concentrations of FL-TFPI as a reference standard [Palmier, et al., Thromb. Haemost. 68, 33-36 (1992)]. Data from individual animals were fitted to the general bi-exponential equation: […]\nwhere C is the concentration of TFPI at time t, and A and B are the intercept values (to) extrapolated from a and b, the first order elimination rate constants."}, "[8]": {"experiment": "Plasma levels of TFPI following bolus injection and constant infusion", "type": "in vivo, rabbit", "settings": "infusion of 11.4 μg/kg/min FL-TFPI, 4 h; PCFIA", "method": "For FL-TFPI, a bolus of 0.5 mg/kg was injected through the femoral vein followed by constant infusion of FL-TFPI (11.4 μg/kg/min).\nFor heparin/FL-TFPI, a bolus of preformed heparin (0.24 mg/kg)/FL-TFPI (0.19 mg/kg) complex was injected followed by constant infusion of heparin (5.4 μg/kg/min)/FL-TFPI (4.3 μg/kg/min) complex. Infusions were carried out over a 4-h period. Plasma levels of TFPI were measured by PCFIA assay.\nFor constant infusion studies, a bolus of FL-TFPI (0.5 mg/kg) or pre-formed heparin (0.24 mg/kg)/FL-TFPI (0.19 mg/kg) complex was injected through the femoral vein, followed by constant infusion of FL-TFPI (11.4 μg/kg/min)or heparin (5.4 μg/kg/min)/FL-TFPI (4.3 μg/kg/min) complex over a 4-hr period. Blood collection and plasma sample preparation were carried out as described above.\nas §5"}, "[9]": {"settings": "pH 7.4", "text": "as §6"}, "[10]": {"settings": "cited from earlier work"}, "[11]": {"settings": "bolus injection, rabbits, PCFIA"}, "[12]": {"settings": "individual rabbits #1-#3, PCFIA"}, "[13]": {"settings": "up to 40 μg/ml N-acetyl heparin (FIG. 5)"}},
  "note": "“And” between values parts separate entries of the source, which are not always exact repeats. Identical values can stand only once. “Also recorded” adds a separate entry of the source. Like-named read-outs stand apart in the source and are kept apart here.",
  "data": [
    {"substance": "non-glycosylated recombinant E. coli-derived FL-TFPI: non-glycosylated recombinant E. coli-derived FL-TFPI", "values": [
      {"measurement": "solubility", "setting": "[1]; Dulbecco's phosphate-buffered saline, estimated", "result": "approximately 200 μg/ml"},
      {"measurement": "solubility", "setting": "[1]; saline solutions, compared with glycosylated FL-TFPI", "result": "even lower"}
    ]},
    {"substance": "heparin", "values": [
      {"measurement": "prolongation of the clotting time", "setting": "[2]; 10 μg/ml heparin alone", "result": 26, "unit": "s"},
      {"measurement": "clotting time", "setting": "[2]; heparin beyond 1.25 μg/ml (FIG. 3)", "result": "progressively prolonged"},
      {"measurement": "clotting time", "setting": "[2]; heparin up to 1.25 μg/ml (FIG. 3)", "result": "did not alter the clotting time"},
      {"measurement": "prolongation of clotting time", "setting": "[3]", "result": "increasingly prolong the clotting time in a moderate manner"},
      {"measurement": "APTT ratio increase compared with PT ratio", "setting": "[4]; FIG. 1", "result": "much greater increase of APTT ratio than PT ratio"},
      {"measurement": "primary site of action", "setting": "[4]; from PT and APTT ratios", "result": "mainly inhibits the intrinsic pathway"},
      {"measurement": "beneficial effect on the disease process", "setting": "[5]", "result": "did not produce a beneficial effect on the disease process"},
      {"measurement": "rate of factor Xa inhibition by TFPI", "setting": "factor Xa", "result": "enhances the rate of factor Xa inhibition by TFPI in a concentration dependent and biphasic manner"}
    ]},
    {"substance": "FL-TFPI: Recombinant full-length (FL-) TFPI, tissue factor pathway inhibitor", "values": [
      {"measurement": "prolongation of the clotting time", "setting": "[2]; 2 μg/ml FL-TFPI alone", "result": 58, "unit": "s"},
      {"measurement": "clotting time", "setting": "[2]; 2 μg/ml FL-TFPI alone (FIG. 3)", "result": 78, "unit": "s"},
      {"measurement": "clotting time", "setting": "[2]; 2 μg/ml FL-TFPI alone (FIG. 5)", "result": 90, "unit": "s"},
      {"measurement": "clotting time", "setting": "[2]; 2 μg/ml FL-TFPI alone (FIG. 6)", "result": 82, "unit": "s"},
      {"measurement": "potency in prolonging the clotting time compared with CT-TFPI", "setting": "[3]; FIG. 2", "result": "much more potent in prolonging the clotting time than CT-TFPI; also recorded: far more potent than CT-TFPI in prolonging the TF-induced clotting time; also recorded: far more potent than CT-TFPI alone or in combination with heparin"},
      {"measurement": "prolongation of clotting time", "setting": "[3]", "result": "increasingly prolong the clotting time in a moderate manner"},
      {"measurement": "PT ratio increase compared with APTT ratio", "setting": "[6]; FIG. 1", "result": "much greater increase of the PT ratio than the APTT ratio"},
      {"measurement": "primary site of action", "setting": "[6]; from PT and APTT ratios", "result": "primarily affects the extrinsic pathway"},
      {"measurement": "clearance of TFPI antigen (PCFIA) vs functional TFPI activity (dPT)", "setting": "[7]; bolus injection, rabbits", "result": "closely matched"},
      {"measurement": "faster overall clearance relative to heparin/FL-TFPI complex", "setting": "[7]; bolus injection, rabbits", "result": "~ 2.6 fold"},
      {"measurement": "overall clearance", "setting": "[7]; bolus injection, rabbits", "result": 5.7, "unit": "mL/kg/min"},
      {"measurement": "t1/2α", "setting": "[7]; [11]", "result": 1.4, "unit": "min"},
      {"measurement": "t1/2β", "setting": "[7]; [11]", "result": 92, "unit": "min"},
      {"measurement": "tα", "setting": "[7]; [12]", "result": "1.5 min and 1.7 min and 1.0 min"},
      {"measurement": "% AUCα", "setting": "[7]; [12]", "result": "9.4% and 7.2% and 7.9%"},
      {"measurement": "% AUCβ", "setting": "[7]; [12]", "result": "90.6% and 92.8% and 92.1%"},
      {"measurement": "Clearence", "setting": "[7]; [12]", "result": "5.9 mL/min/kg and 4.3 mL/min/kg and 6.8 mL/min/kg"},
      {"measurement": "Vd", "setting": "[7]; [12]", "result": "118 mL/kg and 115 mL/kg"},
      {"measurement": "tβ", "setting": "[7]; [12]", "result": "89 min and 96 min and 91 min"},
      {"measurement": "tα", "setting": "[7]; mean of 3 rabbits (±SEM on separate line), PCFIA", "result": 1.4, "unit": "min"},
      {"measurement": "% AUCα", "setting": "[7]; mean of 3 rabbits, PCFIA", "result": 8.2, "unit": "%"},
      {"measurement": "% AUCβ", "setting": "[7]; mean of 3 rabbits, PCFIA", "result": 92, "unit": "%"},
      {"measurement": "Clearence", "setting": "[7]; mean of 3 rabbits, PCFIA", "result": 5.7, "unit": "mL/min/kg"},
      {"measurement": "Vd", "setting": "[7]; mean of 3 rabbits, PCFIA", "result": 117, "unit": "mL/kg"},
      {"measurement": "tβ", "setting": "[7]; mean of 3 rabbits, PCFIA", "result": 92, "unit": "min"},
      {"measurement": "% AUCβ", "setting": "[7]; mean of 3 rabbits, PCFIA, listed as TFPI", "result": 91.8, "unit": "%"},
      {"measurement": "steady state plasma level of TFPI", "setting": "[8]", "result": "~ 2 μg/ml"},
      {"measurement": "solubility", "setting": "[9]", "result": "exceeds 5 mg/ml"},
      {"measurement": "NaCl required for dissociation from heparin", "setting": "[10]", "result": "0.6 to 1", "unit": "M"}
    ]},
    {"substance": "N-acetyl heparin", "values": [
      {"measurement": "clotting time", "setting": "[2]; [13]", "result": "~ 18 sec"},
      {"measurement": "clotting time (in words)", "setting": "[2]; [13]", "result": "did not alter the clotting time"}
    ]}
  ]
}
